According to US20200079851A1 (University of Texas, published 2020):
Positions count from the first letter of the chain named.

Tests used:
human LILRB4 [1] = target: T1, human LILRB4 (human, UniProt Q8NHJ6 22-259, limits assumed); assay: ELISA, OD450 against antibody concentration
T1 construct: also called leukocyte immunoglobulin-like receptor subfamily B member 4

human LILRB4 [2] = target: T1, human LILRB4; assay: ELISA
D2-SR-M16(210-259) = assay: ELISA, mAb titrated on D2-SR-M16(210-259)
human LILRB4 [3] = target: T1, human LILRB4; assay: flow cytometry on LILRB4-overexpressing 293T cells, mAb at 2 ug/ml
LILRB2 = target: T2, LILRB2 (human, UniProt Q8N423 22-458, limits assumed); assay: flow cytometry on LILRB2-overexpressing 293T cells, mAb at 2 ug/ml
T2 construct: also called leukocyte immunoglobulin-like receptor subfamily B member 2
T2 sequence (Q8N423 22-458 limits assumed): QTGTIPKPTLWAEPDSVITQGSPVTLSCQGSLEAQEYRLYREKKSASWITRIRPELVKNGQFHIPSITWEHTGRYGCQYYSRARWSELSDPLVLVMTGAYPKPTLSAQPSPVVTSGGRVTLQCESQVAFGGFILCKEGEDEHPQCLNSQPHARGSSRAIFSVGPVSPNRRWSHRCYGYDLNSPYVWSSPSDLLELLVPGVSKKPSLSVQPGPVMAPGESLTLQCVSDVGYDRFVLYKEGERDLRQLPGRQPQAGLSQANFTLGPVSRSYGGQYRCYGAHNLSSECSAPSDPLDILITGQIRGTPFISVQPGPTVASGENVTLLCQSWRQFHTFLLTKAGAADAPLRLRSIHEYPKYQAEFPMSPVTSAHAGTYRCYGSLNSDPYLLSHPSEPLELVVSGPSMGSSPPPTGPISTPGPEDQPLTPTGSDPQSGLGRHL

LILRB5 = LILRB5 (human, UniProt O75023 24-458, limits assumed); assay: reactivity table, assay not named on the sheet
Chain of LILRB5 (O75023 24-458 limits assumed): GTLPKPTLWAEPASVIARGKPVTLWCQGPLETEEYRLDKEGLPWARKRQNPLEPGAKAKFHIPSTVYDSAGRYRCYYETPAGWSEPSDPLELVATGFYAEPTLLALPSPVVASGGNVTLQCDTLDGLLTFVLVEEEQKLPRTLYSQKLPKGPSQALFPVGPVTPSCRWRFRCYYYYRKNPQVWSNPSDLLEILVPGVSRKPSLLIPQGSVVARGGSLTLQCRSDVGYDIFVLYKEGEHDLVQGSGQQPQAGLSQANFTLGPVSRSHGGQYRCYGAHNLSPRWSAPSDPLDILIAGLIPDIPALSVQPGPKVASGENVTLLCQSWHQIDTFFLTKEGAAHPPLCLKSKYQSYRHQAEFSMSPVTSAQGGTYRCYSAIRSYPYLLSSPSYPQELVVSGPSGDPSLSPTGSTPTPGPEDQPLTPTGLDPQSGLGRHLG

human LILRB4 [4] = target: T1, human LILRB4; assay: ELISA, OD450 against antibody concentration; remark: listed apart in the source
LILRB3 = target: T3, LILRB3 (human, UniProt O75022 24-443, limits assumed); assay: flow cytometry on LILRB3-overexpressing 293T cells, mAb at 2 ug/ml
T3 construct: also called leukocyte immunoglobulin-like receptor subfamily B member 3
T3 sequence (O75022 24-443 limits assumed): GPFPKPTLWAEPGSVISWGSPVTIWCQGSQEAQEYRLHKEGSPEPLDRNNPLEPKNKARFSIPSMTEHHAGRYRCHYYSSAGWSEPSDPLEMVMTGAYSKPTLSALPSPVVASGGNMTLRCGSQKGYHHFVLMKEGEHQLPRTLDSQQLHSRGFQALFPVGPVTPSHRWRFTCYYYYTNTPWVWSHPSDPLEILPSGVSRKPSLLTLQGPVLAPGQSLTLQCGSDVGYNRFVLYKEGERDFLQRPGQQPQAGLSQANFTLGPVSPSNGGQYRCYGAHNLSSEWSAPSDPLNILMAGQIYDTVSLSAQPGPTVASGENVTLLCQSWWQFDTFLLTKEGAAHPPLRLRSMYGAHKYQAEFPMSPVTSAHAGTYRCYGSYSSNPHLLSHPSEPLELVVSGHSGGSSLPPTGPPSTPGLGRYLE

human LILRB4 [5] = target: T1, human LILRB4; assay: reactivity table, assay not named on the sheet
human LILRB4 [6] = target: T1, human LILRB4; assay: ELISA, OD450 against antibody concentration; remark: listed apart in the source
human LILRB4 [7] = target: T1, human LILRB4; assay: ELISA, OD450 against antibody concentration; remark: listed apart in the source
human LILRB4 [8] = target: T1, human LILRB4; assay: ELISA, OD450 against antibody concentration; remark: listed apart in the source

Chain of D2-SR-M16(210-259) (chain, as listed by the source): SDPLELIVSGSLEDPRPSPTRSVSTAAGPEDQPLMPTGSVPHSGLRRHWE

B1: anti-LILRB4 rabbit monoclonal antibody #140 (antibody, V domains shown)
VH: EQSLKESGGRLVTPGTPLTLTCTASGFSLSTYDMSWVRQAPGKGLEWIGIISTSYSIYYTYYASWAKGRFTISRTSSTTVDLKMTSLTTEDTATYFCVGGGGKLNSVVYYIRGLRFWGQGTLVTISS
VL: ELVMTQTPSSTSAAVGGTVTINCQASQSVYDDNWCSWYQQKPGQPPKLLIYDASTLPSGVPSRFKGSGSGTQFTLTISDLECDDAATYYCAGAYSDNIYVFGGGTEVEIK
notes: also called mAb 140
With B1 the EC50 (human LILRB4 [1]) was 0.0274 µg/mL, the EC50 (human LILRB4 [2]) was 183 pM and the “EC50 (read off the curve)” value (D2-SR-M16(210-259)) was ~0.04 µg/mL.

B2: anti-LILRB4 rabbit monoclonal antibody #161-1 (antibody, V domains shown)
VH: QSVKESGGRLVTPGTPLTLTCTVSGIDLSVYLMSWVRHSPGKGLEYIGFINSAGITAYATWAKGRFIISKTSTTVDLKVTSPTTEDTATYFCARNWIRLDLWGQGTLVTISS
VL: ELDLTQTPASVSAAVGGTVTISCQSSETIYKNYLSWFQQKPGQPPKLLIYESSKLASGVPSRFSGSGSGTQFTLTISDVQCDDAATYYCLGGYTDGRDTIFGGGTELEIK
notes: Rabbit mAb
Binder B2 has an EC50 (human LILRB4 [2]) of 69.1 pM.

B3: anti-LILRB4 rabbit monoclonal antibody #161-2 (antibody, V domains shown)
VH: B2 VH
VL: TQTPASVSAAVGGTVTISCQSSETIYKNYLSWFQQKPGQPPKLLIYESSKLASGVPSRFSGSGSGTQFTLTISDVQCDDAATYYCLGGYTDGRDTIFGGGTEVEIK
notes: Rabbit mAb
Binder B3 has an EC50 (human LILRB4 [2]) of 84 pM.

B4: anti-LILRB4 rabbit monoclonal antibody #120 (antibody, V domains shown)
VH: QSLEESGGRLVTPGTPLTLTCTVSGIDLNKYAMTWVRQAPGKGLEYIGFINIVGIAGYATWAKGRFTISKTSTTVDLKVTSPTTEDTATYFCARNWIRLDLWGQGTLVTVSS
VL: ELDLTQTPASVSAAVGGTVTISCQSSESLYKKNYLSWFQQKPGQPPKLLIFEASKLASGVPSRFSGSGSGTQFTLTISDVQCDDAASYYCLGDYTNGRDTTFGGGTEVVVK
notes: Rabbit mAb
B4 gave an EC50 (human LILRB4 [2]) of 79.5 pM.

B5: anti-LILRB4 mAb C84 (antibody, V domains shown)
VH: QIQLVQSGPELKKPGETVKISCKASGYTFTNYGMNWVKQAPGKGLKWMGWINTYTGEPTYADDFKGRFAFSLETSASTAYLQINNLKNEDMATYFCASIYYHTSLWYFDVWGAGTTVTVSS
VL: DVLMTQTPLSLPVSLGDQASISCRSSQNIVHSNGNTYLEWYLQKPGQSPKLLIYRVSNRFSGVPVRFSGSGSGTDFTLKISRVEAEDLGVYYCFQGSHVPLTFGAGTKLELK
notes: Mouse mAb; also called anti-hLILRB4
For B5, the EC50 (human LILRB4 [2]) was 568 pM and the “% of cells in the positive gate” value (human LILRB4 [3]) was 62.5%.

B6: anti-LILRB mAb C102 (antibody, V domains shown)
VH: EVQLQQSGPELVKPGASVKISCKTSGYTFTEYTMHWVKQSHGKSLEWIGGINPNNGGTSYNQKFKGKATLTVDKSSSTAYMDLRSLTSEDSAVYYCARYWDYFDYWGQGTTLTVSS
VL: B5 VL with N28S, Y41F, R55K, V65D, H98Q, V99I, L101P, A105G, L111I
notes: mAb against LILRB2
In the case of B6, the “% of cells in the positive gate” value (LILRB2) is reported as 5.22%.

B7: anti-LILRB4 mAb C92 (antibody, V domains shown)
VH: B5 VH
VL: DVVMTQTPLSLPVSLGDQASISCRSSQSLVHSNGNTYLHWYLQKPGQSPKLLIYKVSNRFSGVPDRFSGSGSGTDFTLKISRVEAEDLGVYFCSQSTHVPYTFGGGTKLEIK
notes: Mouse mAb
In the case of B7, the “% of cells in the positive gate” value (human LILRB4 [3]) is reported as 44.7%.

B8: anti-LILRB4 mAb C201 (antibody, V domains shown)
VH: DVQLQESGPGLVKPSQSLSLTCTVTGYSITSDYAWNWIRQFPGNKLEWMGYISYSGGTSYNPSLKSRISITRDTSKNQFFLQLNSVTTEDTATYYCARLHYGYDYWGLGTTLTVSS
VL: B5 VL with N28S, R55K, V65D, S97L, L101P, A105G, L111I
notes: Mouse mAb
For B8, the “% of cells in the positive gate” value (human LILRB4 [3]) was 38.3% and the binding result (LILRB5) was “binds”.

B9: anti-LILRB4 rabbit monoclonal antibody #223 (antibody, V domains shown)
VH: EQSVKESGGRLVTPGTPLTLTCIVSGFSLNNYAISWVRQAPEKGLEWIGMIRSDGHVDYATWAKGRFTISKTSTTVDLKMTSLTTEDTATYFCARGGHFFNPWGPGTLVTISS
VL: ELVMTQTPSPVSAAVGGTVTISCQSSQTVYNYNELAWYQQKPGQPPKLLIDAASTLASGVPSRFSGSGSGTQFTLKISEVQCDDAATYYCQGTYYISGWYYTFGGGTEVVVK
notes: Rabbit mAb
Binder B9 has an EC50 (human LILRB4 [2]) of 89.7 pM and an EC50 (human LILRB4 [4]) of 0.0274 µg/mL.

B10: anti-LILRB mAb C3 (antibody, V domains shown)
VH: EVQLVESGGGLVQPKGSLKLSCAASGFTFNNYAMNWGRQAPGKGLEWVARIRSKRNNYATHYDDSVKDRFTISRDDSQNMLYLQLNNLKTEDTAMYYCVRDGPYAMDYWGQGTSVTVSS
VL: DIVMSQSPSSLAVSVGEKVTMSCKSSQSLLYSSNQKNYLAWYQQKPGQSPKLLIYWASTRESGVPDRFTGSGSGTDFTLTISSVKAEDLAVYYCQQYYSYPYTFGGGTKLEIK
notes: mAb against LILRB3
B10 was tested, and the “% of cells in the positive gate” value (LILRB3) was 54.2% and the binding result (human LILRB4 [5]) was “binds”.

B11: anti-LILRB mAb C193 (antibody, V domains shown)
VH: EVQLVESGGGLVQPKGSLRLSCAASGFIFNTYAMNWVRQAPGKGLEWVARIRSKSNKYATYYVDSVKDRFTISRDDSQSMLYLQMNNLKTEDTAMYYCVRDGIWGQGTLVTVSA
VL: DIVMTQSPSSLTVTAGEKVTMSCKSSQSLLNSGNQKNYLTWYHQKPGQPPKLLIYWAFTRESGVPDRFTGSGSGTDFTLTISSVQAEDLAVYYCQNDYSYPLTFGSGTKLEIK
notes: mAb against LILRB2
For B11, the “% of cells in the positive gate” value (LILRB2) was 15%.

B12: anti-LILRB4 rabbit monoclonal antibody #101 (antibody, V domains shown)
VH: HSVKESGGGLVTPGESLKLTCKASGMDFSKYWICWVRQAPGKGLEWIACIDTGRSAITVYAKWAKGRFTISKTSSTTVTLQMTTLTAADTATYFCETSVDLWGPGTLVTISS
VL: ELDLTQTPASVEAAVGGTVTIKCQASESIYSGLAWYKQKPGQPPKFLILSASTQASGVPSRFKGSGSGTEFTLTISDLECADAATYYCQSRHYGSSRSYGFAFGGGTEVEIK
notes: Rabbit mAb
B12 gave an EC50 (human LILRB4 [2]) of 118 pM and an EC50 (human LILRB4 [6]) of 0.0177 µg/mL.

B13: anti-LILRB4 rabbit monoclonal antibody #128-1 (antibody, V domains shown)
VH: EQSVEESEGRLVTPGGSLTLTCTVSGFGLSSWAMAWVRQAPGKGLEWIGIIGVSGKIYYPTWAKGRFTISRTSTTVDLKIASPTTEDTATYFCAREPYGDSLWGQGTLVTISS
VL: ELVMTQTPSPVSAAVGGTVTISCQSSQNISTYLSWYQQKPGQPPKFLIYQASKLASGVSSRFKGSGSGTQFTLTISDVQCDDAASYYCAGWKSYSNDDNDFGGGTEVVVK
notes: Rabbit mAb
For B13, the EC50 (human LILRB4 [2]) was 139 pM and the EC50 (human LILRB4 [7]) was 0.0209 µg/mL.

B14: anti-LILRB mAb C287 (antibody, V domains shown)
VH: QIQLVQSGPELKKPGETVKISCKASGYTFTNYGINWVKQAPGKGLKWMGWINTNTGEPTYAEDFKGRFAFSLETSASTAYLQINNLKNEDTATYFCTRGSAKGGFFYWGQGTLVTVSA
VL: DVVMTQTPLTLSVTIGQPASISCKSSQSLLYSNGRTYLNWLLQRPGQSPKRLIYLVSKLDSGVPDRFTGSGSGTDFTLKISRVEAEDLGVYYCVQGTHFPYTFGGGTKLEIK
notes: mAb against LILRB3
In the case of B14, the “% of cells in the positive gate” value (LILRB3) is reported as 55%.

B15: anti-LILRB4 rabbit monoclonal antibody #192 (antibody, V domains shown)
VH: EQSLEESGGGLVTPGGTLTLTCTVSGFSLSNNAMSWVRQAPGKGLEWIGVILLAGPTYYASWAKGRFTISKTSTTVDLKITSPTTEDTATYFCAIAIGSRPFALWGQGTLVTISS
VL: ELVLTQTPSSTSAAVGGTVTINCQSSQSVYSNWLSWFQQKPGQPPKPLIYLASTLASGVPSRFSGSGSGTQFTLTISDVQCDDAATYYCQGGYNGNIYTFGGGTEVVVK
notes: Rabbit mAb
B15 was tested, and the EC50 (human LILRB4 [2]) was 140 pM.

B16: anti-LILRB4 rabbit monoclonal antibody #208 (antibody, V domains shown)
VH: B15 VH with L4V, A54S, P56T
VL: B15 VL with L4M
notes: Rabbit mAb
Binder B16 has an EC50 (human LILRB4 [2]) of 132 pM.

B17: anti-LILRB4 mAb C53 (antibody, V domains shown)
VH: EVNLEESGGGLVQPGGSMKLSCIASGFTFSNYWMNWVRQSPEKGLEWVAEIRLKYNNYATHYAESVKGRFTISRDDSKSTVYLQMNNLRAEDTGIYYCTGTRYGSSLDYWGQGTSVTVSS
VL: DIVMSQSPSSLAVSVGEKVTMSCKSSQNLFYSTNQKNYLAWYQQKPGQSPKLLIYWASTRESGVPDRFTGSGSGTAFTLTISSVKAEDLAVYYCQQYYNYPLTFGAGTKLELK
notes: Mouse mAb
B17 was tested, and the “% of cells in the positive gate” value (human LILRB4 [3]) was 73.5%.

B18: anti-LILRB4 rabbit monoclonal antibody #216-1 (antibody, V domains shown)
VH: EQSVEESGGGLVKPGASLTLTCIASGFSFSSSYVMCWVRQAPGKGLELIACIHAGGSGSTYYASWAKGRFTISKTSSTTVTLQMTSLTAADTATYFCARYNYHFYYIGDYSDLWGPGTLVTVSS
VL: ELVMTQTPSSVSAAVGGTVTIKCQASEDIDSYLAWYQQKPGQRPKVLIYRASTLASGVPSRFKGSGSGTEFTLTISGLECDDAATYYCQQGWSNDVGSNAFGGGTKVEIK
notes: Rabbit mAb
B18 gave an EC50 (human LILRB4 [8]) of 0.0459 µg/mL.

B19: anti-LILRB mAb C290 (antibody, V domains shown)
VH: EVQLLQSGPELVKPGASVKISCRTSGYTFTEYTMHWVKQSHGKSLEWIGGINTNNGGTSYNQKFKGKATLTVDKSSSTAYMELRSLTSEDSAVYYCARDKRSRGELDSTMDYWGQGTSVTVSS
VL: DIVMTQAAPSVPVTPGESVSISCRSSKSLLHSNGNTYLYWFLQRPGQSPQLLIYRMSNLASGVPDRFSGSGSGTAFTLRISRVEAEDVGVYYCMQHLEYPFTFGSGTMLEIK
notes: mAb against LILRB3
With B19 the “% of cells in the positive gate” value (LILRB3) was 64%, the binding result (LILRB5) was “binds” and the binding result (human LILRB4 [5]) was “binds”.
